Measured values as given in patent publication US20160369010A1 (AstraZeneca / MedImmune, published 2016).

Columns and labels:
[1] = biological target: T1, Recombinant human Avi_PCSK9_Flag_His (human, UniProt Q8NBP7 31-692, biotinylated in the HTRF and LDL-R competition assays); experiment: binding ELISA on coated human PCSK9 (10 ug/mL), single concentration, detection with cryptate labelled Fc specific anti human IgG
T1 construct: In-house protein; also called human PCSK9; huPCSK9

[2] = biological target: T1, Recombinant human Avi_PCSK9_Flag_His; experiment: SPR (Biacore 2000)
[3] = biological target: T1, Recombinant human Avi_PCSK9_Flag_His; experiment: HTRF epitope competition: unlabelled compound titrated against a DyLight 650-labelled anti-PCSK9 antibody for biotinylated human PCSK9; % specific binding [panel B]
Protocol: (§1) PCSK9 activity of each peptide-antibody fusions was assessed using Homogenous Time Resolved Fluorescence (HTRF) epitope competition assays.
(§2) For the assay all samples and reagents were prepared in assay buffer containing 1X Phosphate Buffered Saline, 0.1% BSA (Sigma A9576) and 0.4M Potassium Fluoride. Test samples of peptide-antibody fusions or control antibodies were prepared in 384 well polypropylene plates by 3-fold serial dilutions. […] Delta F% was then calculated using the following equation.

human GLP-1 receptor = human GLP-1 receptor (human, UniProt P43220 24-463); experiment: cell-based or functional assay
[4] = biological target: T2, Flag/His tagged human CD86 (in-house) (human, UniProt P42081 24-247, limits assumed); experiment: DELFIA TRF, antigen coated at 10 µg/mL
T2 sequence (looked up): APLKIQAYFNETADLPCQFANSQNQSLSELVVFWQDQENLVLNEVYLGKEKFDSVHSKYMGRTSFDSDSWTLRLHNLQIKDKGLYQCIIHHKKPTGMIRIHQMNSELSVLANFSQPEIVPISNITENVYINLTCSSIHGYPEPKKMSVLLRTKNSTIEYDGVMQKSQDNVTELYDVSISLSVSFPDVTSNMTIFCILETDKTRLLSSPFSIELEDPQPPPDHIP

[5] = biological target: T1, Recombinant human Avi_PCSK9_Flag_His; experiment: HTRF epitope competition: unlabelled compound titrated against a DyLight 650-labelled anti-PCSK9 antibody for biotinylated human PCSK9; % specific binding [panel B]; remark: listed apart in the source
Protocol: as §1, §2

[6] = biological target: T1, Recombinant human Avi_PCSK9_Flag_His; experiment: HTRF epitope competition: unlabelled compound titrated against a DyLight 650-labelled anti-PCSK9 antibody for biotinylated human PCSK9; % specific binding [panel C]
Protocol: as §1, §2

Sequence of human GLP-1 receptor (P43220 24-463): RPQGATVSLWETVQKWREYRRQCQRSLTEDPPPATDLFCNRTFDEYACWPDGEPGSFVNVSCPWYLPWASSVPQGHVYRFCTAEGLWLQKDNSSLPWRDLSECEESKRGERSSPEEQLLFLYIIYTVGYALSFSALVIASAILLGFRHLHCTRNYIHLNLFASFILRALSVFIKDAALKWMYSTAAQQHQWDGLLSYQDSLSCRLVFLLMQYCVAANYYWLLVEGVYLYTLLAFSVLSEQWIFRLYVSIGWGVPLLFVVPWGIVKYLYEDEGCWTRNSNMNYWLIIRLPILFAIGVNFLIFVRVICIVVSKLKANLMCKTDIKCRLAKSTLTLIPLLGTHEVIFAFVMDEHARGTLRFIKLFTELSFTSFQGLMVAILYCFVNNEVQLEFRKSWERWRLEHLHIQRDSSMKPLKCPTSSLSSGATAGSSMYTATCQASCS

B1: PC9#6_DSB7_V19A (antibody, IgG1)
VH: QVQLVQSGAEVKKPGSSVKVSCKASGGTFNSHAISWVRQAPGQGLEWMGGINPILGIANYAQKFQGRVTITADESTSTAYMELSSLRSEDTAVYYCARHYEIQIGRYGMNVYYLMYRFASWGQGTLVTVSS
VL: HGEGTFTSDLSKQMEEECARLFIEWLKNGGPSSGAPPPGCGGGGGSGGGGSGGGGSADIQMTQSPSSLSASVGDRVTITCRASQGIRSALNWYQQKPGKAPKLLIYNGSTLQSGVPSRFSGSGSGTDFTLTISSLQPEDFAVYYCQQFDGDPTFGQGTKVEIK
notes: IgG1-TM
binding result [1]: no binding (tested: 100 ug/mL)

B2: PC9#2_GLP-1_VL (antibody, IgG1)
VH: QVQLVQSGAEVKKPGASVKVSCKASGYTFTSYYMHWVRQAPGQGLEWMGEIHPSGGRTNYNEKFKSRVTMTRDTSTSTVYMELSSLRSEDTAVYYCARERPLYASDLWGQGTTVTVSS
VL: HGEGTFTSDVSSYLEEQAAKEFIAWLVKGGGGGGGSGGGGSGGGGSADIQMTQSPSSLSASVGDRVTITCKASQDVHTAVAWYQQKPGKAPKLLIYHASYRYTGVPSRFSGSGSGTDFTFTISSLQPEDIATYYCQQRYSLWRTFGQGTKLEIK
notes: IgG1-TM; also called light chain peptide antibody fusion of PC9#2
x change of Kd, PC9#2_GLP1 against PC9#2 [2]: 2.7 fold | IC50 (read off the curve) [3]: ~0.4 nM | x change (against GLP1-Fc) (human GLP-1 receptor): 2.4 fold

B3: HS9_DSB7_V19A (antibody)
VH: QVQLVQSGAEVKKPGASVKVSCKASGYTFTSYYMHWVRQAPGQGLEWMGEISPSGGSTSYNQKFQGRVTMTRDTSTSTVYMELSSLRSEDTAVYYCARERPLYASDLWGQGTTVTVSS
VL: HGEGTFTSDLSKQMEEECARLFIEWLKNGGPSSGAPPPGCGGGGGSGGGGSGGGGSADIQMTQSPSSLSASVGDRVTITCQASQDVKTAVAWYQQKPGKAPKLLIYSASYRYTGVPSRFSGSGSGTDFTFTISSLQPEDIATYYCQQRYSLWRTFGQGTKLEIK
binding result [4]: no binding (tested: 25 µg/mL)

B4: PC9#2 GLP-1 analogue heavy chain fusion (antibody, IgG1)
VH: HGEGTFTSDVSSYLEEQAAKEFIAWLVKGGGGGGGSGGGGSGGGGSAQVQLVQSGAEVKKPGASVKVSCKASGYTFTSYYMHWVRQAPGQGLEWMGEIHPSGGRTNYNEKFKSRVTMTRDTSTSTVYMELSSLRSEDTAVYYCARERPLYASDLWGQGTTVTVSS
VL: DIQMTQSPSSLSASVGDRVTITCKASQDVHTAVAWYQQKPGKAPKLLIYHASYRYTGVPSRFSGSGSGTDFTFTISSLQPEDIATYYCQQRYSLWRTFGQGTKLEIK
notes: IgG1-TM; descriptive name; also called heavy chain peptide antibody fusion of PC9#2
IC50 (read off the curve) [5]: ~0.7 nM

B5: PC9#3 GLP-1 analogue heavy chain fusion (antibody, IgG1)
VH: HGEGTFTSDVSSYLEEQAAKEFIAWLVKGGGGGGGSGGGGSGGGGSAEVQLVESGGGLVQPGGSLRLSCAASGFTFNNYAMNWVRQAPGKGLDWVSTISGSGGTTNYADSVKGRFIISRDSSKHTLYLQMNSLRAEDTAVYYCAKDSNWGNFDLWGRGTLVTVSS
VL: not shown
notes: IgG1-TM; descriptive name; also called heavy chain peptide antibody fusion of PC9#3
IC50 (read off the curve) [6]: ~0.09 nM
